Measured values as given in patent US20080095778A1, “Treatment Of Fungal Infections” (priority 2004, published 2008).

Tests used:
[1] = test system: Candida strains; conditions: WO 01/76627, cited from earlier work
[2] = test system: Aspergillus species; experiment: Antifungal activity with Mycograb antibody, summary over the Aspergillus species examined; format: cell-based; conditions: summary of Tables 1-4; for Antifungal activity / surprising effect when used in combination with Mycograb antibody: agent combined with Mycograb antibody
Description: (§1) An inoculum suspension was prepared in buffered RPMI with glutamine medium by probing colonies from a 7 day old Sabouraud plate. The suspension was adjusted to 0.09-0.11 (80% to 82% transmittance) for Aspergillus species, 0.15-0.17 (68% to 70% transmittance). The inoculum was diluted a further 1:2 when added to the antifungal agents in the assay (final inoculum (0.4×10^4 to 0.5×10^4). For AMB and Mycograb®, either alone or in combination, the endpoint was determined as the concentration to produce no growth (MIC-0). Microtitre plates were incubated at 37° C. without agitation for 48 hours for Aspergillus species. For caspofungin, voriconazole and itraconazole, either alone or in combination with Mycograb® antibody, the MIC endpoint was determined as the concentration resulting in a prominent decrease in turbidity (≧50% growth inhibition, MIC-2) compared to the growth control (Keele et al. 2001; Espinel-Ingroff 2003). The final inhibitory concentration (FIC) was calculated for each drug by dividing the MIC in the presence of the second drug by the MIC in its absence. For each combination, two fractions were produced which were summated to produce the fractional final inhibitory concentration. Synergy was defined by value of ≦0.5, indifference was defined by a value of >0.5 to <4.0, and antagonism was defined by a value of ≧4.0 (Matthews et al., 2003).

[3] = test system: A. fumigatus; experiment: Broth microdilution (NCCLS M38-A) checkerboard assay, A. fumigatus; format: cell-based, Aspergillus fumigatus; conditions: for MIC-0 of each agent, Alone: Table 1, no growth endpoint; for MIC-0 of each agent, Combination: amphotericin B and Mycograb in combination; for FIC: MIC in combination divided by MIC alone
Description: (§2) Stock solutions of amphotericin B (AMB, Sigma), caspofungin (Caspo), voriconazole (VOR) and itraconazole (ITZ) were prepared according to the National Committee for Clinical Laboratory Standards (M38-A) in RPMI 1640 with glutamine broth medium, buffered to pH 7.0 with […] morpholinopropanesulphonic acid (MOPS). AMB stock solutions were prepared as a 100× series in 100% dimethyl sulfoxide (DMSO) and diluted in medium to a concentration range of 0.03125 to 16 μg/ml. Caspofungin, voriconazole and itraconazole were tested at a concentration range of 0.03125 to 1024 μg/ml, and Mycograb® (NeuTec Pharma plc) at a concentration range of 0.25 to 1024 μg/ml.
(§3) Clinical isolates of Aspergillus fumigatus (2), A. flavus (1), A. terreus (1) and A. niger (1) were obtained from the Department on Microbiology, Manchester Royal Infirmary, Manchester, UK.
as §1

[4] = test system: A. flavus; experiment: Broth microdilution (NCCLS M38-A) checkerboard assay, A. flavus; format: cell-based; conditions: for MIC-0 of each agent, Alone: Table 1, no growth endpoint; for MIC-0 of each agent, Combination: amphotericin B and Mycograb in combination; for FIC: MIC in combination divided by MIC alone
Description: as §2, §3, §1

[5] = test system: A. terreus; experiment: Broth microdilution (NCCLS M38-A) checkerboard assay, A. terreus; format: cell-based; conditions: for MIC-0 of each agent, Alone: Table 1, no growth endpoint; for MIC-0 of each agent, Combination: amphotericin B and Mycograb in combination; for FIC: MIC in combination divided by MIC alone
Description: as §2, §3, §1

[6] = test system: A. fumigatus CI2; experiment: Broth microdilution (NCCLS M38-A) checkerboard assay, A. fumigatus CI2; format: cell-based, Aspergillus fumigatus; conditions: for MIC-0 of each agent, Alone: Table 1, no growth endpoint; for MIC-0 of each agent, Combination: amphotericin B and Mycograb in combination; for FIC: MIC in combination divided by MIC alone
Description: as §2, §3, §1

[7] = test system: A. niger; experiment: Broth microdilution (NCCLS M38-A) checkerboard assay, A. niger; format: cell-based; conditions: for MIC-0 of each agent, Alone: Table 1, no growth endpoint; for MIC-0 of each agent, Combination: amphotericin B and Mycograb in combination; for FIC: MIC in combination divided by MIC alone
Description: as §2, §3, §1

[8] = amphotericin B and Mycograb combination
[9] = Table 2, ≧50% growth inhibition endpoint
[10] = Table 3, ≧50% growth inhibition endpoint
[11] = Table 4, ≧50% growth inhibition endpoint
[12] = caspofungin and Mycograb in combination
[13] = itraconazole and Mycograb in combination
[14] = voriconazole and Mycograb in combination

C[C@@H]1[C@H](O)[C@@H](C)/C=C/C=C/C=C/C=C/C=C/C=C/C=C/[C@H](O[C@@H]2O[C@H](C)[C@@H](O)[C@H](N)[C@@H]2O)C[C@@H]2O[C@](O)(C[C@@H](O)C[C@@H](O)[C@H](O)CC[C@@H](O)C[C@@H](O)CC(=O)O[C@H]1C)C[C@H](O)[C@H]2C(=O)O [AMB, amphotericin B]
Efficacy of antifungal agent in the presence of the antibody ([1]; wide variety of fungal strains (e.g. Candida species)): significantly enhanced | Antifungal activity / surprising effect when used in combination with Mycograb antibody [2]: not observed | MIC-0 of each agent, Alone [3]: 2 µg/mL | FICI [3, 8]: 0.5 | Outcome [3, 8]: Indifferent (indifference was defined by a value of >0.5 to <4.0) | MIC-0 of each agent, Combination [3]: 1 µg/mL | MIC-0 of each agent, Alone [4]: 4 µg/mL | FICI [4, 8]: 2 | Outcome [4, 8]: Indifferent (indifference was defined by a value of >0.5 to <4.0) | MIC-0 of each agent, Combination [4]: 4 µg/mL | MIC-0 of each agent, Alone [5]: 4 µg/mL | FICI [5, 8]: 2 | Outcome [5, 8]: Indifferent (indifference was defined by a value of >0.5 to <4.0) | MIC-0 of each agent, Combination [5]: 4 µg/mL | FIC ([5]; amphotericin B and Mycograb): 1 µg/mL | MIC-0 of each agent, Alone [6]: 2 µg/mL | FICI [6, 8]: 0.531 | Outcome [6, 8]: Indifferent (indifference was defined by a value of >0.5 to <4.0) | MIC-0 of each agent, Combination [6]: 1 µg/mL | MIC-0 of each agent, Alone [7]: 2 µg/mL | FICI [7, 8]: 0.5 | Outcome [7, 8]: Indifferent (indifference was defined by a value of >0.5 to <4.0) | MIC-0 of each agent, Combination [7]: 1 µg/mL

OC(Cn1cncn1)(Cn1cncn1)c1ccc(F)cc1F [fluconazole]
Synergy in combination with Mycograb antibody against Candida strains ([1]; prior finding): little synergy | Antifungal activity / surprising effect when used in combination with Mycograb antibody [2]: not observed

B1: Mycograb: antibody specific for a fungal hsp90 stress protein epitope (SEQ ID NO: 1), comprising the sequence of SEQ ID NO: 3, expressed in E. coli (protein)
scFv: HMAEVQLVESGAEVKKPGESLRISCKGSGCIISSYWISWVRQMPGKGLEWMGKIDPGDSYINYSPSFQGHVTISADKSINTAYLQWNSLKASDTAMYYCARGGRDFGDSFDYWGQGTLVTVSSGGGGSGGGGSGGGGSDVVMTQSPSFLSAFVGDRITITCRASSGISRYLAWYQQAPGKAPKLLIYAASTLQTGVPSRFSGSGSGTEFTLTINSLQPEDFATYYCQHLNSYPLTFGGGTKVDIKRAA
modifications: Synthetically generated peptide
Growth inhibition by antibody on its own ([2]; Mycograb antibody alone): able to inhibit growth of certain Aspergillus species | MIC-0 of each agent, Alone [3]: 512 µg/mL | MIC-2 of each agent, Alone [3, 9]: 1024 µg/mL | MIC-2 of each agent, Alone [3, 10]: 1024 µg/mL | MIC-2 of each agent, Alone [3, 11]: 1024 µg/mL | MIC-0 of each agent, Combination [3]: 4 µg/mL | FIC ([3]; amphotericin B and Mycograb): 0.01 | MIC-2 of each agent, Combination [3, 12]: 32 µg/mL | FIC ([3]; caspofungin and Mycograb): 0.062 | MIC-2 of each agent, Combination [3, 13]: 16 µg/mL | FIC ([3]; itraconazole and Mycograb): 0.016 | MIC-2 of each agent, Combination [3, 14]: 0.25 µg/mL | FIC ([3]; voriconazole and Mycograb): 0.0002 | MIC-0 of each agent, Alone [4]: 512 µg/mL | MIC-2 of each agent, Alone [4, 9]: 512 µg/mL | MIC-2 of each agent, Alone [4, 10]: 512 µg/mL | MIC-2 of each agent, Alone [4, 11]: 512 µg/mL | MIC-0 of each agent, Combination [4]: 512 µg/mL | FIC ([4]; amphotericin B and Mycograb): 1 | MIC-2 of each agent, Combination [4, 12]: 0.0625 µg/mL | FIC ([4]; caspofungin and Mycograb): 0.0001 | MIC-2 of each agent, Combination [4, 13]: 0.25 µg/mL | FIC ([4]; itraconazole and Mycograb): 0.0005 | MIC-2 of each agent, Combination [4, 14]: 0.25 µg/mL | FIC ([4]; voriconazole and Mycograb): 0.0005 | MIC-0 of each agent, Alone [5]: 512 µg/mL | MIC-2 of each agent, Alone [5, 9]: 1024 µg/mL | MIC-2 of each agent, Alone [5, 10]: 1024 µg/mL | MIC-2 of each agent, Alone [5, 11]: 1024 µg/mL | MIC-0 of each agent, Combination [5]: 512 µg/mL | FIC ([5]; amphotericin B and Mycograb): 1 µg/mL | MIC-2 of each agent, Combination [5, 12]: 32 µg/mL | FIC ([5]; caspofungin and Mycograb): 0.031 µg/mL | MIC-2 of each agent, Combination [5, 13]: 32 µg/mL | FIC ([5]; itraconazole and Mycograb): 0.031 µg/mL | MIC-2 of each agent, Combination [5, 14]: 0.25 µg/mL | FIC ([5]; voriconazole and Mycograb): 0.0002 µg/mL | MIC-0 of each agent, Alone [6]: 512 µg/mL | MIC-2 of each agent, Alone [6, 9]: 1024 µg/mL | MIC-2 of each agent, Alone [6, 10]: 1024 µg/mL | MIC-2 of each agent, Alone [6, 11]: 1024 µg/mL | MIC-0 of each agent, Combination [6]: 16 µg/mL | FIC ([6]; amphotericin B and Mycograb): 0.031 | MIC-2 of each agent, Combination [6, 12]: 16 µg/mL | FIC ([6]; caspofungin and Mycograb): 0.062 | MIC-2 of each agent, Combination [6, 13]: 8 µg/mL | FIC ([6]; itraconazole and Mycograb): 0.008 | MIC-2 of each agent, Combination [6, 14]: 0.25 µg/mL | FIC ([6]; voriconazole and Mycograb): 0.0002 | MIC-0 of each agent, Alone [7]: 512 µg/mL | MIC-2 of each agent, Alone [7, 9]: 256 µg/mL | MIC-2 of each agent, Alone [7, 10]: 16 µg/mL | MIC-2 of each agent, Alone [7, 11]: 16 µg/mL | MIC-0 of each agent, Combination [7]: 4 µg/mL | FIC ([7]; amphotericin B and Mycograb): 0.01 | MIC-2 of each agent, Combination [7, 12]: 0.0625 µg/mL | FIC ([7]; caspofungin and Mycograb): 0.0001 | MIC-2 of each agent, Combination [7, 13]: 4 µg/mL | FIC ([7]; itraconazole and Mycograb): 0.25 | MIC-2 of each agent, Combination [7, 14]: 16 µg/mL | FIC ([7]; voriconazole and Mycograb): 1
